PMC10397247
Each block holds one binder with its values, some of them ahead of it.

Tests used:
[1] = target: T1, 4H492-bA; assay: two-hybrid library CCNG1;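 note: natural log of median RNA to DNA barcode read ratio; higher means stronger binding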
T1 chain: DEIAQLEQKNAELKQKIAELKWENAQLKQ

[2] = target: T2, 4H741-bA; assay: two-hybrid library CCNG1;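 note: natural log of median RNA to DNA barcode read ratio; higher means stronger binding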
T2 chain: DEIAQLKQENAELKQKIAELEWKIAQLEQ

[3] = target: T3, 4H3865-AA; assay: two-hybrid library CCmax; conditions: mean of both orientations;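 note: natural log of median RNA to DNA barcode read ratio; higher means stronger binding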
T3 chain: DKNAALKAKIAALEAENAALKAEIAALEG

[4] = target: T4, 4H697-AA; assay: two-hybrid library CCmax; conditions: mean of both orientations;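 note: natural log of median RNA to DNA barcode read ratio; higher means stronger binding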
T4 chain: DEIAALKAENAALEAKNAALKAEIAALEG

[5] = target: T5, 4H384-AA; assay: two-hybrid library CCmax; conditions: mean of both orientations;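 note: natural log of median RNA to DNA barcode read ratio; higher means stronger binding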
T5 chain: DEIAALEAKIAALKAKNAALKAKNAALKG

[6] = target: T6, 4H3718-AA; assay: two-hybrid library CCmax; conditions: mean of both orientations;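 note: natural log of median RNA to DNA barcode read ratio; higher means stronger binding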
T6 chain: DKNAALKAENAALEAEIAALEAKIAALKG

[7] = target: T7, 4H3631-AA; assay: two-hybrid library CCmax; conditions: mean of both orientations
T7 chain: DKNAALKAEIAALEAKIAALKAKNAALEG

[8] = target: T8, 4H982-AA; assay: two-hybrid library CCmax; conditions: mean of both orientations
T8 chain: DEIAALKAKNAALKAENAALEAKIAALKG

[9] = target: T9, 4H3413-AA; assay: two-hybrid library CCmax; conditions: mean of both orientations
T9 chain: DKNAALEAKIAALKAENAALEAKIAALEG

[10] = target: T10, 4H3588-AA; assay: two-hybrid library CCmax; conditions: mean of both orientations
T10 chain: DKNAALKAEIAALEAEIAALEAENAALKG

[11] = target: T11, 4H340-AA; assay: two-hybrid library CCmax; conditions: mean of both orientations
T11 chain: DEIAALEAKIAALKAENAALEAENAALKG

[12] = target: T12, 4H3606-AA; assay: two-hybrid library CCmax; conditions: mean of both orientations
T12 chain: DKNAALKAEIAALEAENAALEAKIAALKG

[13] = target: T13, 4H3697-AA; assay: two-hybrid library CCmax; conditions: mean of both orientations
T13 chain: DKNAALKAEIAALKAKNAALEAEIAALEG

[14] = target: T14, 4H3378-AA; assay: two-hybrid library CCmax; conditions: mean of both orientations
T14 chain: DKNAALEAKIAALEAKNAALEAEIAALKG

[15] = target: T15, 4H32-AA; assay: two-hybrid library CCmax; conditions: mean of both orientations
T15 chain: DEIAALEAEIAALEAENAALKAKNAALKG

[16] = target: T16, 4H3162-AA; assay: two-hybrid library CCmax
T16 chain: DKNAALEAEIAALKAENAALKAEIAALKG

[17] = target: T17, 4H3165-AA; assay: two-hybrid library CCmax; conditions: mean of both orientations
T17 chain: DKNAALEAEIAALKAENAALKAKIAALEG

[18] = target: T18, 4H2865-AA; assay: two-hybrid library CCmax; conditions: mean of both orientations
T18 chain: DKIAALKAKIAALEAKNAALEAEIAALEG

[19] = target: T19, 4H94-AA; assay: two-hybrid library CCmax; conditions: mean of both orientations
T19 chain: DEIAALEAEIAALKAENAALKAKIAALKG

[20] = target: T20, 4H930-AA; assay: two-hybrid library CCmax; conditions: mean of both orientations
T20 chain: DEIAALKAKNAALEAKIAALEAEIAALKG

[21] = target: T21, 4H458-AA; assay: two-hybrid library CCmax; conditions: mean of both orientations
T21 chain: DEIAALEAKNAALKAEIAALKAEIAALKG

[22] = target: T22, 4H891-AA; assay: two-hybrid library CCmax; conditions: mean of both orientations
T22 chain: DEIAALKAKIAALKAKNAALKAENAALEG

[23] = target: T23, 4H570-AA; assay: two-hybrid library CCmax; conditions: mean of both orientations
T23 chain: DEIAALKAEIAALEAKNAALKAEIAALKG

[24] = target: T24, 4H3410-AA; assay: two-hybrid library CCmax; conditions: mean of both orientations
T24 chain: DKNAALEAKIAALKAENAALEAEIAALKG

[25] = target: T25, 4H3120-AA; assay: two-hybrid library CCmax; conditions: mean of both orientations
T25 chain: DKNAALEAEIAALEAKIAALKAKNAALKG

[26] = target: T26, 4H3753-AA; assay: two-hybrid library CCmax; conditions: mean of both orientations
T26 chain: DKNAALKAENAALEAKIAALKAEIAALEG

[27] = target: T27, 4H797-AA; assay: two-hybrid library CCmax; conditions: mean of both orientations
T27 chain: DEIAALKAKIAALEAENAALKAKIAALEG

[28] = target: T28, 4H3590-AA; assay: two-hybrid library CCmax; conditions: mean of both orientations
T28 chain: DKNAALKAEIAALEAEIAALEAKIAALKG

[29] = target: T29, 4H909-AA; assay: two-hybrid library CCmax; conditions: mean of both orientations
T29 chain: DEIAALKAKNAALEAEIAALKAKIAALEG

[30] = target: T30, 4H710-AA; assay: two-hybrid library CCmax; conditions: mean of both orientations
T30 chain: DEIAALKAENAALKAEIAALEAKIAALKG

[31] = target: T31, 4H310-AA; assay: two-hybrid library CCmax; conditions: mean of both orientations
T31 chain: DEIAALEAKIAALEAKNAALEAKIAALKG

[32] = target: T32, 4H2725-AA; assay: two-hybrid library CCmax; conditions: mean of both orientations
T32 chain: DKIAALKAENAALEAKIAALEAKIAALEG

[33] = target: T33, 4H629-AA; assay: two-hybrid library CCmax; conditions: mean of both orientations
T33 chain: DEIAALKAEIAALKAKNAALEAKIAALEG

[34] = target: T34, 4H3381-AA; assay: two-hybrid library CCmax; conditions: mean of both orientations
T34 chain: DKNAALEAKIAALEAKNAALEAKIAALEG

[35] = target: T35, 4H850-AA; assay: two-hybrid library CCmax; conditions: mean of both orientations
T35 chain: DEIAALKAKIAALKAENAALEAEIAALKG

[36] = target: T36, 4H3130-AA; assay: two-hybrid library CCmax; conditions: mean of both orientations
T36 chain: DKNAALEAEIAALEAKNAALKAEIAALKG

[37] = target: T37, 4H3009-AA; assay: two-hybrid library CCmax; conditions: mean of both orientations
T37 chain: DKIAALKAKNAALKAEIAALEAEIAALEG

[38] = target: T38, 4H745-AA; assay: two-hybrid library CCmax; conditions: mean of both orientations
T38 chain: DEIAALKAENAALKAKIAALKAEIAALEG

[39] = target: T39, 4H536-AA; assay: two-hybrid library CCmax; conditions: mean of both orientations
T39 chain: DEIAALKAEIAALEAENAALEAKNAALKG

[40] = target: T40, 4H3016-AA; assay: two-hybrid library CCmax; conditions: mean of both orientations
T40 chain: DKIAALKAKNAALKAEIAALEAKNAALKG

[41] = target: T41, 4H2649-AA; assay: two-hybrid library CCmax
T41 chain: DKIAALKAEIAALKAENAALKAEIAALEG

[42] = target: T42, 4H2698-AA; assay: two-hybrid library CCmax; conditions: mean of both orientations
T42 chain: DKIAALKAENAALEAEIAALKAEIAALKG

[43] = target: T43, 4H3395-AA; assay: two-hybrid library CCmax; conditions: mean of both orientations
T43 chain: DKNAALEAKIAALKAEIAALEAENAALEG

[44] = target: T44, 4H485-AA; assay: two-hybrid library CCmax; conditions: mean of both orientations
T44 chain: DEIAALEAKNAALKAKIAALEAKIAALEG

- interaction score [1]: -0.566
- interaction score [2]: -1.59
Binder: DEIAQLEQKNAELKQKIAELKWENAQLKQ [4H492-bA]

- interaction score [3]: -0.607
- interaction score [4]: -1.39
- interaction score [5]: -1.58
- interaction score [6]: -1.43
- interaction score [7]: -1.62
- interaction score [8]: -1.88
- interaction score [9]: -1.04
- interaction score [10]: -1.53
- interaction score [11]: -1.4
- interaction score [12]: -0.0579
- interaction score [13]: -1.2
- interaction score [14]: -1.59
- interaction score [15]: -1.53
- interaction score [16]: 0.942
Binder: DKNAALEAEIAALKAENAALKAEIAALKG [4H3162-AA]

- interaction score [17]: 1.07
- interaction score [18]: -1.38
- interaction score [19]: 2.21
- interaction score [20]: -0.569
- interaction score [21]: -1.33
- interaction score [22]: -1.86
- interaction score [23]: 1.86
- interaction score [3]: -1.59
- interaction score [24]: -0.287
- interaction score [25]: -1.41
- interaction score [26]: -1.64
- interaction score [27]: 0.345
- interaction score [28]: -0.789
- interaction score [29]: -1.6
- interaction score [30]: -1.42
- interaction score [31]: -0.563
- interaction score [32]: 0.985
- interaction score [33]: -0.681
- interaction score [34]: -1.34
- interaction score [13]: -1.81
- interaction score [35]: 1.99
- interaction score [36]: -0.528
- interaction score [37]: -0.366
- interaction score [38]: -0.16
- interaction score [39]: 0.807
- interaction score [40]: -1.64
- interaction score [41]: 0.376
- interaction score [42]: -1.14
- interaction score [43]: -1.27
- interaction score [44]: -1.19
Binder: DKIAALKAEIAALKAENAALKAEIAALEG [4H2649-AA]
